In one data set the target is T1, hANGPTL5-His (Homo sapiens, UniProt Q86XS5).
T1 construct: His; purchased Abnova Corp. H00253935-P01
Put plainly: BIACORE cross-reactivity, amine coupled hANGPTL5-His. Type of data set: binding. Conditions: for Specific RU, hANGPTL5-His: chip surface 5265 RU, mAb injected at 3.125-50 μg/mL. Here is the method:
(§1) Possible cross-reactivity of the anti-hANGPTL4 antibodies to related proteins, i.e., hANGPTL3, human angiopoietin-like protein 5 (hANGPTL5) and mouse ANGPTL4 (mANGPTL4), was tested for the selected antibodies, i.e., H1H268P and H1H284P, using the BIACORE™ system. Briefly, anti-hANGPTL4 antibodies as well as negative controls, i.e., two monoclonal antibodies (Control a and Control b) that are non-binders to any ANGPTL proteins, were injected at 3.125 μg/mL-50 μg/mL over amine coupled chip surfaces of hANGPTL3-His (R&D Systems, cat #3829-AN) at 5228 RU, hANGPTL4-His (R&D Systems, cat #4487-AN) at 6247 RU, hANGPTL5-His (Abnova Corp., cat #H00253935-P01) at 5265 RU, and mANGPTL4-His [R26-S410 of mANGPTL4 (SEQ ID NO: 478) fused with an AS linker to a C-terminal 6-histidine tag] at 5233 RU, respectively. A polyclonal antibody specific for hANGPTL3 (R&D System, cat #BAF3485) was also tested.

Another data set has as its target T2, mANGPTL4(26-410)-His (Mus musculus, UniProt Q9Z1P8).
T2 sequence (Q9Z1P8 26-410): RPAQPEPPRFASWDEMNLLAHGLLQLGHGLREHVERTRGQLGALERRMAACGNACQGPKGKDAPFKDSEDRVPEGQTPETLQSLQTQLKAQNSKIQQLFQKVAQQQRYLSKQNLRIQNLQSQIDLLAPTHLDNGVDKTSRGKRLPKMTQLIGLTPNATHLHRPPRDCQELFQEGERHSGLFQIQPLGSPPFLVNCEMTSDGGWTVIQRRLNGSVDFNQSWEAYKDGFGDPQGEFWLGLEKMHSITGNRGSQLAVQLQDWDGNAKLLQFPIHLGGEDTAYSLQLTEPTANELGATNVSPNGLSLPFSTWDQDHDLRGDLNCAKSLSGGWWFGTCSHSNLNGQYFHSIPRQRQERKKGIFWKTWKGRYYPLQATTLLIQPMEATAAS
Nature of the data set: Cell-free LPL bioassay, inhibition of mANGPTL4-His. Type of data set: biochemical. Conditions: constant 1 nM mANGPTL4(26-410)-His; antibody 0 to 100 nM; NB: Not blocking.

Data set [1] can be described thus: Serum human Ab levels in humanized ANGPTL4 mice, ELISA. Type of data set: in vivo, mouse. Further details: unit not given here. The settings on record: mean±SEM. Here is the method: The effect of anti-hANGPTL4 antibodies H1H268P and H1H284P on serum TG levels was determined in mice expressing the ANGPTL4 protein containing the human N-terminal coil-coil region (“humanized ANGPTL4 mice”). The humanized ANGPTL4 mouse was made by replacing first three exons of the mouse Angptl4 gene (the N terminal coil-coil region) with the corresponding human N-terminal coil-coil ANGPLT4 sequence in C57BL6/129 (F1H4) embryonic stem cells. After germ line transmission was established, heterozygous mice (ANGPTL4hum/+) were bred together to generate homozygous mice [ANGPTL4hum/hum or hANGPTL4(+/+)] on a C57BL6 background. Humanized ANGPTL4 mice were pre-bled 7 days before (day −7) the experiment and put into groups of six mice each for each antibody tested. Antibodies (H1H268P, H1H284P and isotype-matched (hIgG1) control with no known cross-reactivity to mouse antigens) were administered at 10 mg/kg dose by subcutaneous injection. Mice were bled after 4 hours of fasting at days 1, 4, 7 and 11 after antibody injection; and serum TG levels were determined by ADVIA® 1800 Chemistry System (Siemens). Average TG levels were calculated for each time point for each antibody.
Levels of circulating anti-hANGPTL4 antibodies (“serum human Ab”) were also determined using a standard ELISA assay. Briefly, plates were coated with a goat anti-human Fc antibody (Sigma-Aldrich) to capture serum human Ab. Serum was then added to the plates and captured anti-hANGPTL4 antibodies were detected by chemiluminescence using a horseradish peroxidase (HRP)-conjugated goat anti-human IgG antibody (Sigma-Aldrich).
(ELISA stands for enzyme-linked immunosorbent assay.)

Another data set addresses T3, mANGPTL4-His (Mus musculus, UniProt Q9Z1P8).
T3 sequence (Q9Z1P8 26-410): T2 sequence (Q9Z1P8 26-410)
Put plainly: BIACORE cross-reactivity, amine coupled mANGPTL4-His. Type of data set: binding. The settings on record: for Specific RU, mANGPTL4-His: chip surface 5233 RU, mAb injected at 3.125-50 μg/mL. As for the experimental part:
as §1
A general note: In SPR one partner is held on a chip, and binding of the other changes the refractive index at the surface.

A further data set deals with humanized ANGPTL4 mice. Put plainly: Serum TG, H4H268P2 and fenofibrate alone or in combination. The settings on record: day 7; H4H268P2 10 mg/kg s.c. day 0; fenofibrate 0.05% (w/w) in chow. Type of data set: in vivo, mouse. As for the experimental part:
The effects of the anti-ANGPTL4 antibody H4H268P2 and TG-reducing drug fenofibrate, each alone or in combination, on serum TG levels were evaluated in humanized ANGPTL4 mice. The mice were pre-bled 7 days before the experiment after 4 hours of fasting and put into 4 groups of six mice each. Groups 2 and 4 were administered with H4H268P2 at 10 mg/kg by subcutaneous injection on day 0 and groups 1 (control group) and 2 were placed on regular chow diet. Groups 3 and 4 received chow diet supplemented with 0.05% (w/w) of fenofibrate (the dosage level was determined experimentally in a pilot study). Serum was collected from a terminal bleed on day 7 after H4H268P2 and/or fenofibrate administration (after 4 hours of fasting) and analyzed by ADVIA® 1800 Chemistry System (Siemens).

Data set [2] relates to obese rhesus monkeys (Macaca mulatta). Nature of the data set: Phase II pilot PK/PD study in obese rhesus monkeys. Type of data set: in vivo, rhesus monkey (Macaca mulatta). The settings on record: 10 mg/kg IV. Here is the method: Phase II: In the second non-GLP pharmacokinetics/pharmacodynamic (PK/PD) study only H4H268P2 was administered as a single bolus intravenous (IV) injection to eight obese rhesus monkeys (Macaca mulatta). The step of pre-dosing vehicle injection was omitted in this study. Three baseline assessments were taken at days −7, −3 and 0 of the study and all eight monkeys received H4H268P2 at 10 mg/kg by IV on day 0. Serum samples were collected from the baseline period through day 35 post-dosing and assessed for serum lipid levels by ADVIA® 1800 Chemistry System (Siemens). Animals were grouped for data analysis according to average baseline TG levels so as to prospectively predict the effect: A. TG<150 mg/dL (n=3); B. 150 mg/dL<TG<500 mg/dL (n=4); and C. TG>1000 mg/dL (n=1).

The mark [3] stands for this setting: day 1 after injection, 10 mg/kg s.c.
[4] abbreviates: day 4 after injection, 10 mg/kg s.c.
The mark [5] stands for this setting: day 7 after injection, 10 mg/kg s.c.
Where [6] appears, read: day 11 after injection, 10 mg/kg s.c.
Setting [7] is: animals with baseline 150 mg/dL<TG<500 mg/dL.

Experimental findings from patent US9120851B2, “Human antibodies to human angiopoietin-like protein 4” (Regeneron Pharmaceuticals, Inc., priority 2009, dated 2015) are described below.

Changes are numbered by the printed parent chain.

T1 sequence (Q86XS5 26-388): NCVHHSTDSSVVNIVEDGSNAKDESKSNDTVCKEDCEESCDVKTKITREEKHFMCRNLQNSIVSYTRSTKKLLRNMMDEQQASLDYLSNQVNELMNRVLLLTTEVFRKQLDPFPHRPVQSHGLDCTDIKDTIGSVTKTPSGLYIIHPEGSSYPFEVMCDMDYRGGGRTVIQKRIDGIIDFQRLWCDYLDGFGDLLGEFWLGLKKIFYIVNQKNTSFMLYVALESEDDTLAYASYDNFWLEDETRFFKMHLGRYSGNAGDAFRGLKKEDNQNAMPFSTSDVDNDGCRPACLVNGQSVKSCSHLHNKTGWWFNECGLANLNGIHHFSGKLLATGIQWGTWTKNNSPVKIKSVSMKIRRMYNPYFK

B1: H1H268P: anti-hANGPTL4 antibody, hIgG1 isotype, HCVR/LCVR SEQ ID NOs 42/44 (antibody, V domains shown)
VH: QVQLQESGAGLLKPSETLSLTCTVYGGSFSIHHWTWIRHPPGKGLEWIGEINHRGSTNYNPSLKSRVTISIDTSKNQFSLKLSAVTAADTAVYYCARGLRFLDWLSSYFDYWGQGTLVTVSS
VL: DIQMTQSPSSLSASVGDRVTITCRASQGISDYLAWYQQKPGKVPNLLIYAASALQSGVPSRFSGSGSGTDFTLTISSLQPEDVATYYCQNYNTAPLTFGGGTKVEIK
As for B1, in the data set with hANGPTL5-His, the “binding to hANGPTL5-His (other related ANGPTL protein), in words” value is on record as “did not bind”. For the same molecule, the “Specific RU, hANGPTL5-His” value with hANGPTL5-His is on record as −16 RU. Moreover, the IC50 (commonly the point on the concentration scale where inhibition reaches its midpoint) in the data set with mANGPTL4(26-410)-His was above 0.1 µM. Moreover, the “Serum Human Antibody” value is 24130 ± 1788 in data set [1] (setting [3]); 16557 ± 1369 in data set [1] (setting [4]); 12586 ± 1176 in data set [1] (setting [5]); 6106 ± 1111 in data set [1] (setting [6]); 2.92 ± 2.92 in data set [1] (day −7 (pre-bleed)). In addition, the “binding to mANGPTL4-His (other related ANGPTL protein), in words” value in the data set with mANGPTL4-His is “did not bind”. Also, the “Specific RU, mANGPTL4-His” value with mANGPTL4-His was −7 RU.

B2: H4H268P2: IgG4 version of H1H268P with a single amino acid substitution in framework region 1, HCVR/LCVR SEQ ID NOs 487/44 (antibody, V domains shown)
VH: B1 VH with E6Q
VL: B1 VL
modifications: IgG4 constant region
Regarding B2, in the data set with humanized ANGPTL4 mice, the “TG levels reduced (mean) compared to control group on chow diet” value is given as around 40%. Besides, in data set [2] (setting [7]), the “HDL-C, in words” value is “increased”; the “LDL-C or Total-C, in words” value was “no effect”; the “decrease in TG levels from baseline” value was 50-68%. Also, the “response of fasting TG, in words” value in data set [2] (animals with baseline TG<150 mg/dL (normal TG levels)) is “largely unresponsive”. The “TG level, in words” value in data set [2] (individual animal with baseline TG >1000 mg/dL) was “dramatic and rapid drop in TG level”.

B3: H1H284P: anti-hANGPTL4 antibody, hIgG1 isotype, HCVR/LCVR SEQ ID NOs 90/92 (antibody, V domains shown)
VH: QVQLVESGGGVVQPGRSLRLSCAASGFTFSSYGMHWVRQAPGKGLEWMAVISFDGGNKNNADSVKGRFTISRDNSKNTLYLQMNSLRAEDTAVYYCAKEGDRSGHPYFYYYGLDVWGQGTTVTVS
VL: DIQLTQSPSFLSASVGDRVTITCWASQGISSYLAWYQQKPGKAPKLLIYAASTLQSGVPSRFSGSGSETEFTLTISSLQPEDFATYYCQQLHSYPLTFGGGTKVEIK
As to B3, the “binding to hANGPTL5-His (other related ANGPTL protein), in words” value with hANGPTL5-His was “did not bind”. Besides, in the data set with hANGPTL5-His, the “Specific RU, hANGPTL5-His” value is on record as −13 RU. Also, the IC50 with mANGPTL4(26-410)-His was above 0.1 µM. Besides, the “Serum Human Antibody” value in data set [1] (setting [3]) is recorded as 16459 ± 1455; in data set [1] (setting [4]), 9103 ± 767; in data set [1] (setting [5]), 2428 ± 525; in data set [1] (setting [6]), 135 ± 38; in data set [1] (day −7 (pre-bleed)), 3.02 ± 2.38. Moreover, the “binding to mANGPTL4-His (other related ANGPTL protein), in words” value in the data set with mANGPTL4-His is recorded as “did not bind”. Moreover, the “Specific RU, mANGPTL4-His” value in the data set with mANGPTL4-His is recorded as 18 RU.
